Measured values taken from patent publication US20250084169A1 (published 2025).

Key:
[1] = molecular target: recombinant human Fc gamma RIIIa (CD16a) 158V (human, UniProt P08637 17-208)
Sequence of recombinant human Fc gamma RIIIa (CD16a) 158V (P08637 17-208 F176V limits assumed): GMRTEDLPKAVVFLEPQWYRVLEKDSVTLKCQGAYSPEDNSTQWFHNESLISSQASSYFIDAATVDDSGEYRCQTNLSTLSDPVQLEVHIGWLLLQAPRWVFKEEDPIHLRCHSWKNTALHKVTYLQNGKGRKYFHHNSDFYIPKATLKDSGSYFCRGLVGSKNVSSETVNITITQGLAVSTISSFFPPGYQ

B1: B19c66 (antibody, human IgG1, kappa)
light: not shown
heavy: not shown
chain: CPPCPAPELLGGPSVFLFPPKPKDTLMISRTPEVTCVVVDVSHEDPEVKFNWYVDGVEVHNAKTKPREEQYNSTYRVVSVLTVLHQDWLNGKEYKCKVSNKALPAPIEKTISKAKGQPREPQVYVYPPSRDELTKNQVSLTCLVKGFYPSDIAVEWESNGQPENNYKTTPPVLDSDGSFALVSKLTVDKSRWQQGNVFSCSVMHEALHNHYTQKSLSLSPGK
B1 showed a Kd [1] of 234 nM and a Kd (CD19 (target of Table 9)) of 21.8 nM.
